Laboratory results reported in patent US20220298218A1 (ANTAG THERAPEUTICS, published 2022).
*1 amine or outer side, *2 acyl side, *3 side chain or, on linkers, in order; H or OH if unused. Where no end group is shown, it is not given here. Side-chain parts run from the residue outwards. [ ]: non-standard residue; d: D form. The star is where a group is joined. C18 diacid = O=C(O)CCCCCCCCCCCCCCCCC(=O)*; C16 diacid = O=C(O)CCCCCCCCCCCCCCC(=O)*; γGlu = O=C(O)[C@H](CCC(=O)[*:2])N[*:1]; Glutaryl = O=C(CCCC(=O)[*:2])[*:1]; Nle = CCCC[C@H](N)C(=O)O; AEEA = NCCOCCOCC(=O)O

T1: human GIP receptor (human, UniProt P48546 22-466)
T1 sequence (looked up): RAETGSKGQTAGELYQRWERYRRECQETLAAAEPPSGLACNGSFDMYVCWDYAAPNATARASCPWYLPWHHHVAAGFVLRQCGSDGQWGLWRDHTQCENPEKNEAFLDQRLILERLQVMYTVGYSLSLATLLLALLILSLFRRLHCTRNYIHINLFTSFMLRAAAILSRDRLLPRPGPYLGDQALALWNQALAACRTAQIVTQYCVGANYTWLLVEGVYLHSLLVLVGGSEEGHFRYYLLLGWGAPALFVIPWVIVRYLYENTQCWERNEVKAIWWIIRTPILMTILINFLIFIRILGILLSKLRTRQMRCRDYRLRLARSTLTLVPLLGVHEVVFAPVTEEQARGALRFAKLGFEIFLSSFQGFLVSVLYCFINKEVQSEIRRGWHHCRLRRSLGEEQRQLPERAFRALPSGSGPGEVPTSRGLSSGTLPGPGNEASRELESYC


Molecular target: T1, human GIP receptor
Experiment: cell-based or functional assay

| Binder | cAMP agonism % Emax [%] | cAMP antagonism [nM] | cAMP antagonism % inhib [%] | cAMP antagonism pIC50 |
| --- | --- | --- | --- | --- |
| EGTFISDYSIA[Nle]DKIK([AEEA-AEEA-γGlu-C18 diacid])QQDFVEWLLAQKPSSGAPPPS-OH [AT683] | 0 | 15.9 | 93 | 7.8 |
| EGTFISDYSIAMDKIK([AEEA-AEEA-γGlu-C18 diacid])QQDFVNWLLAQKPSSGAPPPS-OH (N-terminus assumed; SMILES CC[C@H](C)[C@H](NC(=O)[C@H](CO)NC(=O)[C@H](Cc1ccc(O)cc1)NC(=O)[C@H](CC(=O)O)NC(=O)[C@H](CO)NC(=O)[C@@H](NC(=O)[C@H](Cc1ccccc1)NC(=O)[C@@H](NC(=O)CNC(=O)[C@@H](N)CCC(=O)O)[C@@H](C)O)[C@@H](C)CC)C(=O)N[C@@H](C)C(=O)N[C@@H](CCSC)C(=O)N[C@@H](CC(=O)O)C(=O)N[C@@H](CCCCN)C(=O)N[C@H](C(=O)N[C@@H](CCCCNC(=O)COCCOCCNC(=O)COCCOCCNC(=O)CC[C@H](NC(=O)CCCCCCCCCCCCCCCCC(=O)O)C(=O)O)C(=O)N[C@@H](CCC(N)=O)C(=O)N[C@@H](CCC(N)=O)C(=O)N[C@@H](CC(=O)O)C(=O)N[C@@H](Cc1ccccc1)C(=O)N[C@H](C(=O)N[C@@H](CC(N)=O)C(=O)N[C@@H](Cc1c[nH]c2ccccc12)C(=O)N[C@@H](CC(C)C)C(=O)N[C@@H](CC(C)C)C(=O)N[C@@H](C)C(=O)N[C@@H](CCC(N)=O)C(=O)N[C@@H](CCCCN)C(=O)N1CCC[C@H]1C(=O)N[C@@H](CO)C(=O)N[C@@H](CO)C(=O)NCC(=O)N[C@@H](C)C(=O)N1CCC[C@H]1C(=O)N1CCC[C@H]1C(=O)N1CCC[C@H]1C(=O)N[C@@H](CO)C(=O)O)C(C)C)[C@@H](C)CC) [AT680] | 0 | 4.3 | 93 | 8.4 |
| EGTFISDYSIALDKIK([AEEA-AEEA-γGlu-C18 diacid])QQDFVNWLLEQKPSSGAPPPS-OH (N-terminus assumed; SMILES CC[C@H](C)[C@H](NC(=O)[C@H](CO)NC(=O)[C@H](Cc1ccc(O)cc1)NC(=O)[C@H](CC(=O)O)NC(=O)[C@H](CO)NC(=O)[C@@H](NC(=O)[C@H](Cc1ccccc1)NC(=O)[C@@H](NC(=O)CNC(=O)[C@@H](N)CCC(=O)O)[C@@H](C)O)[C@@H](C)CC)C(=O)N[C@@H](C)C(=O)N[C@@H](CC(C)C)C(=O)N[C@@H](CC(=O)O)C(=O)N[C@@H](CCCCN)C(=O)N[C@H](C(=O)N[C@@H](CCCCNC(=O)COCCOCCNC(=O)COCCOCCNC(=O)CC[C@H](NC(=O)CCCCCCCCCCCCCCCCC(=O)O)C(=O)O)C(=O)N[C@@H](CCC(N)=O)C(=O)N[C@@H](CCC(N)=O)C(=O)N[C@@H](CC(=O)O)C(=O)N[C@@H](Cc1ccccc1)C(=O)N[C@H](C(=O)N[C@@H](CC(N)=O)C(=O)N[C@@H](Cc1c[nH]c2ccccc12)C(=O)N[C@@H](CC(C)C)C(=O)N[C@@H](CC(C)C)C(=O)N[C@@H](CCC(=O)O)C(=O)N[C@@H](CCC(N)=O)C(=O)N[C@@H](CCCCN)C(=O)N1CCC[C@H]1C(=O)N[C@@H](CO)C(=O)N[C@@H](CO)C(=O)NCC(=O)N[C@@H](C)C(=O)N1CCC[C@H]1C(=O)N1CCC[C@H]1C(=O)N1CCC[C@H]1C(=O)N[C@@H](CO)C(=O)O)C(C)C)[C@@H](C)CC) [AT689] | 3 | 10 | 82 | 8 |
| EGTFISDYSIALDKIK([AEEA-AEEA-γGlu-C18 diacid])QQDFVEWLLAQKPSSGAPPPS-OH (N-terminus assumed; SMILES CC[C@H](C)[C@H](NC(=O)[C@H](CO)NC(=O)[C@H](Cc1ccc(O)cc1)NC(=O)[C@H](CC(=O)O)NC(=O)[C@H](CO)NC(=O)[C@@H](NC(=O)[C@H](Cc1ccccc1)NC(=O)[C@@H](NC(=O)CNC(=O)[C@@H](N)CCC(=O)O)[C@@H](C)O)[C@@H](C)CC)C(=O)N[C@@H](C)C(=O)N[C@@H](CC(C)C)C(=O)N[C@@H](CC(=O)O)C(=O)N[C@@H](CCCCN)C(=O)N[C@H](C(=O)N[C@@H](CCCCNC(=O)COCCOCCNC(=O)COCCOCCNC(=O)CC[C@H](NC(=O)CCCCCCCCCCCCCCCCC(=O)O)C(=O)O)C(=O)N[C@@H](CCC(N)=O)C(=O)N[C@@H](CCC(N)=O)C(=O)N[C@@H](CC(=O)O)C(=O)N[C@@H](Cc1ccccc1)C(=O)N[C@H](C(=O)N[C@@H](CCC(=O)O)C(=O)N[C@@H](Cc1c[nH]c2ccccc12)C(=O)N[C@@H](CC(C)C)C(=O)N[C@@H](CC(C)C)C(=O)N[C@@H](C)C(=O)N[C@@H](CCC(N)=O)C(=O)N[C@@H](CCCCN)C(=O)N1CCC[C@H]1C(=O)N[C@@H](CO)C(=O)N[C@@H](CO)C(=O)NCC(=O)N[C@@H](C)C(=O)N1CCC[C@H]1C(=O)N1CCC[C@H]1C(=O)N1CCC[C@H]1C(=O)N[C@@H](CO)C(=O)O)C(C)C)[C@@H](C)CC) [AT682] | 0 | 13.6 | 89 | 7.9 |
| EGTFISDYSIALDKIK([AEEA-AEEA-γGlu-C18 diacid])QQDFVNWLLEGGPSSGAPPPS-OH (N-terminus assumed; SMILES CC[C@H](C)[C@H](NC(=O)[C@H](CO)NC(=O)[C@H](Cc1ccc(O)cc1)NC(=O)[C@H](CC(=O)O)NC(=O)[C@H](CO)NC(=O)[C@@H](NC(=O)[C@H](Cc1ccccc1)NC(=O)[C@@H](NC(=O)CNC(=O)[C@@H](N)CCC(=O)O)[C@@H](C)O)[C@@H](C)CC)C(=O)N[C@@H](C)C(=O)N[C@@H](CC(C)C)C(=O)N[C@@H](CC(=O)O)C(=O)N[C@@H](CCCCN)C(=O)N[C@H](C(=O)N[C@@H](CCCCNC(=O)COCCOCCNC(=O)COCCOCCNC(=O)CC[C@H](NC(=O)CCCCCCCCCCCCCCCCC(=O)O)C(=O)O)C(=O)N[C@@H](CCC(N)=O)C(=O)N[C@@H](CCC(N)=O)C(=O)N[C@@H](CC(=O)O)C(=O)N[C@@H](Cc1ccccc1)C(=O)N[C@H](C(=O)N[C@@H](CC(N)=O)C(=O)N[C@@H](Cc1c[nH]c2ccccc12)C(=O)N[C@@H](CC(C)C)C(=O)N[C@@H](CC(C)C)C(=O)N[C@@H](CCC(=O)O)C(=O)NCC(=O)NCC(=O)N1CCC[C@H]1C(=O)N[C@@H](CO)C(=O)N[C@@H](CO)C(=O)NCC(=O)N[C@@H](C)C(=O)N1CCC[C@H]1C(=O)N1CCC[C@H]1C(=O)N1CCC[C@H]1C(=O)N[C@@H](CO)C(=O)O)C(C)C)[C@@H](C)CC) [AT691] | 7 | 20 | 75 | 7.8 |
| Glutaryl-GTFISDYSIAMDKIK(C16 diacid)QQDFVNWLLAQKPSSGAPPPS-OH (SMILES CC[C@H](C)[C@H](NC(=O)[C@H](CO)NC(=O)[C@H](Cc1ccc(O)cc1)NC(=O)[C@H](CC(=O)O)NC(=O)[C@H](CO)NC(=O)[C@@H](NC(=O)[C@H](Cc1ccccc1)NC(=O)[C@@H](NC(=O)CNC(=O)CCCC(=O)O)[C@@H](C)O)[C@@H](C)CC)C(=O)N[C@@H](C)C(=O)N[C@@H](CCSC)C(=O)N[C@@H](CC(=O)O)C(=O)N[C@@H](CCCCN)C(=O)N[C@H](C(=O)N[C@@H](CCCCNC(=O)CCCCCCCCCCCCCCC(=O)O)C(=O)N[C@@H](CCC(N)=O)C(=O)N[C@@H](CCC(N)=O)C(=O)N[C@@H](CC(=O)O)C(=O)N[C@@H](Cc1ccccc1)C(=O)N[C@H](C(=O)N[C@@H](CC(N)=O)C(=O)N[C@@H](Cc1c[nH]c2ccccc12)C(=O)N[C@@H](CC(C)C)C(=O)N[C@@H](CC(C)C)C(=O)N[C@@H](C)C(=O)N[C@@H](CCC(N)=O)C(=O)N[C@@H](CCCCN)C(=O)N1CCC[C@H]1C(=O)N[C@@H](CO)C(=O)N[C@@H](CO)C(=O)NCC(=O)N[C@@H](C)C(=O)N1CCC[C@H]1C(=O)N1CCC[C@H]1C(=O)N1CCC[C@H]1C(=O)N[C@@H](CO)C(=O)O)C(C)C)[C@@H](C)CC) [AT677] | 0 | 0.447 | 93 | 9.4 |
| EGTFISDYSIA[Nle]DKIK([AEEA-AEEA-γGlu-C18 diacid])QQDFVNWLLEQKPSSGAPPPS-OH (N-terminus assumed; SMILES CCCC[C@H](NC(=O)[C@H](C)NC(=O)[C@@H](NC(=O)[C@H](CO)NC(=O)[C@H](Cc1ccc(O)cc1)NC(=O)[C@H](CC(=O)O)NC(=O)[C@H](CO)NC(=O)[C@@H](NC(=O)[C@H](Cc1ccccc1)NC(=O)[C@@H](NC(=O)CNC(=O)[C@@H](N)CCC(=O)O)[C@@H](C)O)[C@@H](C)CC)[C@@H](C)CC)C(=O)N[C@@H](CC(=O)O)C(=O)N[C@@H](CCCCN)C(=O)N[C@H](C(=O)N[C@@H](CCCCNC(=O)COCCOCCNC(=O)COCCOCCNC(=O)CC[C@H](NC(=O)CCCCCCCCCCCCCCCCC(=O)O)C(=O)O)C(=O)N[C@@H](CCC(N)=O)C(=O)N[C@@H](CCC(N)=O)C(=O)N[C@@H](CC(=O)O)C(=O)N[C@@H](Cc1ccccc1)C(=O)N[C@H](C(=O)N[C@@H](CC(N)=O)C(=O)N[C@@H](Cc1c[nH]c2ccccc12)C(=O)N[C@@H](CC(C)C)C(=O)N[C@@H](CC(C)C)C(=O)N[C@@H](CCC(=O)O)C(=O)N[C@@H](CCC(N)=O)C(=O)N[C@@H](CCCCN)C(=O)N1CCC[C@H]1C(=O)N[C@@H](CO)C(=O)N[C@@H](CO)C(=O)NCC(=O)N[C@@H](C)C(=O)N1CCC[C@H]1C(=O)N1CCC[C@H]1C(=O)N1CCC[C@H]1C(=O)N[C@@H](CO)C(=O)O)C(C)C)[C@@H](C)CC) [AT690] | 6 | 15.9 | 76 | 7.8 |
